Test results published in US20220017630A1 (JIANGSU SIMCERE PHARMACEUTICAL, published 2022).
Positions count from the first letter of the chain named. Blank lines part the entries; values can stand above or below the binder they belong to.

Assays:
[1] = biological target: T1, human TNFR2 on the cell surface (CHO-TNFR2 cells; human Treg cells) (human, UniProt P20333 23-461); test: flow cytometry competition on CHO-TNFR2 cells: antibody first, then human TNFα-biotin, PE-streptavidin; MFI of bound TNFα-biotin [label on D00006), panel #224 (printed twice, bottom left and bottom right), table under the plot]
T1 construct: whole, on cells; The assay field of each row says which cells; also called TNFR2-CHO cell; TNFR2 on Treg cells
T1 sequence (looked up): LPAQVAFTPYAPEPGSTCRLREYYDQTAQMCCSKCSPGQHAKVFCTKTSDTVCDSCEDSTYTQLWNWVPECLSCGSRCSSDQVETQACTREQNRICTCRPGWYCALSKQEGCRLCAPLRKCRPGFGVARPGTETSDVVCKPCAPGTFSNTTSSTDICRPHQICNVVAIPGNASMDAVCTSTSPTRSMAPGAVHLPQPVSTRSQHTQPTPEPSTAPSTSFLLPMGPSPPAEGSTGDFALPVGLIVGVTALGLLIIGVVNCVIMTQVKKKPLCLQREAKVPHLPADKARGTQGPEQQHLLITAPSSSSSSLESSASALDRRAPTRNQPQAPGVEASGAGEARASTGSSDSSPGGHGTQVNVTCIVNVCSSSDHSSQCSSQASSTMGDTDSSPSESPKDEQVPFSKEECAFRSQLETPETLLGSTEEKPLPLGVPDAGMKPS
Protocol: (§1) CHO cells that stably overexpressed human TNFR2 were used for experiments. The cells were resuscitated and passaged until in good state, and the expression level of human TNFR2 on the cells was assessed by FACS. Compared to the isotype control, the assay could be carried out when the fold change of mean fluorescence intensity (MFI) was more than 100 times.
(§2) CHO-TNFR2 cells were digested, washed twice with DPBS and stained with Live/Dead (L/D) at room temperature for 20 min, and then seeded at 1×10⁵ cells/50 μl/well. […] The diluted antibodies were added 50 μl/well into wells pre-seeded with cells, and gently blown and mixed to make the final concentrations of the antibodies to 20, 6.67, 2.22, 0.74, 0.247, 0.08, 0.027 and 0 nM, respectively followed by incubation at 4° C. for 30 min. […] After washing twice with the staining buffer, 100 μl/well of PE-streptavidin was added and incubated at 4° C. for 30 min. After additional washing with the staining buffer twice, 150 μl resuspended cells was analyzed using an flow cytometry. Taking the logarithmic value of the antibody concentrations as abscissa and the corresponding MFI value as ordinate, the inhibition curve of the antibody was drawn, and the IC50 value was calculated by four parameters fitting.

[2] = biological target: T1, human TNFR2 on the cell surface …; test: flow cytometry competition on CHO-TNFR2 cells: antibody first, then human TNFα-biotin, PE-streptavidin; MFI of bound TNFα-biotin [panel #352, table under the plot]
Protocol: as §1, §2

[3] = biological target: T1, human TNFR2 on the cell surface …; test: flow cytometry competition on CHO-TNFR2 cells: antibody first, then human TNFα-biotin, PE-streptavidin; MFI of bound TNFα-biotin [panel #365, table under the plot]
Protocol: as §1, §2

[4] = biological target: T1, human TNFR2 on the cell surface …; test: flow cytometry competition on CHO-TNFR2 cells: antibody first, then human TNFα-biotin, PE-streptavidin; MFI of bound TNFα-biotin [panel #395, table under the plot]
Protocol: as §1, §2

[5] = biological target: T1, human TNFR2 on the cell surface …; test: flow cytometry competition on CHO-TNFR2 cells: antibody first, then human TNFα-biotin, PE-streptavidin; MFI of bound TNFα-biotin [panel #226, table under the plot]
Protocol: as §1, §2

[6] = biological target: T1, human TNFR2 on the cell surface …; test: flow cytometry competition on CHO-TNFR2 cells: antibody first, then human TNFα-biotin, PE-streptavidin; MFI of bound TNFα-biotin [panel #309, table under the plot]
Protocol: as §1, §2

[7] = biological target: T2, Human TNFR2 recombinant protein (Sino 10417-H08H) (human, UniProt P20333 23-257); test: ELISA, coated antigen 0.5 ug/ml, antibody 12 ng/ml
T2 construct: also called hTNFR2 (His tag)
T2 sequence (looked up): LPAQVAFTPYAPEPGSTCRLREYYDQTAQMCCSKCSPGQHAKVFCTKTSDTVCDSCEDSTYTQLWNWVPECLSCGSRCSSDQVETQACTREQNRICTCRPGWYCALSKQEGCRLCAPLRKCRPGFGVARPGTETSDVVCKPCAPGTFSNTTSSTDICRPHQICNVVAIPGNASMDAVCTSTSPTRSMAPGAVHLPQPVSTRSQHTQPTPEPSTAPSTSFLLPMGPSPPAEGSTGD

[8] = biological target: T1, human TNFR2 on the cell surface …; test: flow cytometry competition on CHO-TNFR2 cells: antibody first, then human TNFα-biotin, PE-streptavidin; MFI of bound TNFα-biotin [label on D00006), panel #133, table under the plot]
Protocol: as §1, §2

[9] = biological target: T1, human TNFR2 on the cell surface …; test: flow cytometry competition on CHO-TNFR2 cells: antibody first, then human TNFα-biotin, PE-streptavidin; MFI of bound TNFα-biotin [label on D00006), panel #125, table under the plot]
Protocol: as §1, §2

[10] = biological target: T1, human TNFR2 on the cell surface …; test: flow cytometry competition on CHO-TNFR2 cells: antibody first, then human TNFα-biotin, PE-streptavidin; MFI of bound TNFα-biotin [label on D00006), panel #088, table under the plot]
Protocol: as §1, §2

[11] = biological target: T1, human TNFR2 on the cell surface …; test: flow cytometry competition on CHO-TNFR2 cells: antibody first, then human TNFα-biotin, PE-streptavidin; MFI of bound TNFα-biotin [label on D00006), panel #001, table under the plot]
Protocol: as §1, §2

IC50 [1]: 0.128 µg/mL
B1: TNFR2 antibody #224 (antibody, V domains shown)
VH: EVQLQESGPEIVKPGASVKLSCTASGFNNKDIYMHWVKQRPEQGLEWIGRIDPATGNTKHDPKFQDKATLSSDTSSNTAYLQFSSLTSEDTAVYYCAHSPYGDFGAMDYWGQGTTVTVSS
VL: DIQMTQSPAIMSASLGERVTMTCTASSSVSSNYLHWYQQKPGSSPKLWIYSTSNLPSGVPARFSGSGSGTSYSLTISSMEAEDAATYYCHQYHRSPWTFGGGTKLEIK

IC50 [2]: 0.056 µg/mL
B2: TNFR2 antibody #352 (antibody, V domains shown)
VH: EVQLQESGPGLVAPSQSLSITCTVSGFSLTSYGVHWVRQPPGKGLEWLVVIWSDGGTTYNSALKSRLSISKDNSKSQVFLKMNSLQTDDTAMYYCARHDDDGYYAMDYWGQGTTVTVSS
VL: DIVLTQSPSLMSASPGEKVTMTCSASSSVGYMYWYQQKPRSSPKPWIYLTSNLASGVPARFSGSGSGTSYSLTISSMEVEDAATYYCQQWSSDPFTFGSGTKLEIK

IC50 [3]: 0.041 µg/mL
B3: TNFR2 antibody #365 (antibody, V domains shown)
VH: EVQLQESGPGLVQPSQSLSITCTVSGFSLTSYGVHWVRQSPGKGLEWLGLIWSDGSPDYSAAFISRLSINKDNSKSQVFFKMNSLQADDTAIYYCARNDDGGDYVMDYWGQGTTVTVSS
VL: B2 VL with D1E, S9A, G30S, V79A, S91T, D93N, F95L, S99A

IC50 [4]: 0.021 µg/mL
B4: TNFR2 antibody #395 (antibody, V domains shown)
VH: B3 VH with G10V, G33S, L50V, S56G, P57T, N70S, V105A
VL: B2 VL with D1E, S9A, G30S, V79A, D93N, F95L, S99A

IC50 [5]: 0.06 µg/mL
B5: TNFR2 antibody #226 (antibody, V domains shown)
VH: EVQLQESGAELVRPGASVKLSCKASGYSFTNYWMNWVKQRPGQGLEWIGMIHPSDSETRLNQKFKDKATLTVDKSSSTAYMQLSSPTSEDSAVYYCARGEGLGAARSVSMDYWGQGTTVTVSS
VL: DIQMTQSPSSLSASLGDRVTISCRASQDISNYLNWYQQKPDGTVKVLIYYTALLHSGVPSRFSGSGSGTDYSLTISNLEQEDIATYFCQQGNTLPWTFGGGTKLEIK

IC50 [6]: 0.116 µg/mL
ELISA OD [7]: 1.9 OD
B6: TNFR2 antibody #309 (antibody, V domains shown)
VH: EVQLQESGAELVKPGASVKLSCKASGYTFTSYWIHWVKLRPGQGFEWIGEINPNNGGTDYNEKFKRKATLTVDKSSSTAYMELSSLTSEDSAIYYCTIDSMITTTWFAYWGQGTTVTVSS
VL: EIVMTQSQKLMSTVVGDRVSVTCKASQNVGTNVAWFQQKPGQSPKALINSASYRYSGVPDRFTGSGSGTDFTLTISSVQSEDLAEYFCQQYNSYPFTFGSGTKLEIK

IC50 [8]: 0.04 µg/mL
B7: TNFR2 antibody #133 (antibody, V domains shown)
VH: EVQLQESGAELVRSGASVKLSCTASGFNIKDYYIQWVKQRPEQGLEWIGWIDPESGNTKYAPKFQDKATMTADTSSNTAYLQLSGLTSEDSAVYYCNAYYDYDGSMDYWGQGTTVTVSS
VL: DIVMTQSPLSLPVSLGDQASISCRSSQSLVHSNGNTYLHWYLQKPGQSPKLLIYKVSNRFSGVPDRFSGSGSGTDFTLKISRVETDDLGVYFCSQSTHVPTWTFGGGTKLEIK

IC50 [9]: 0.109 µg/mL
B8: TNFR2 antibody #125 (antibody, V domains shown)
VH: EVQLQESGGGLVQPGGSLNLSCAASGFAFSIYDLSWVRQTPEKRLEWVAYINNGGISTYYSDTVKGRFTISRDNAKNTLYLQMSSLKSEDTAMYYCVRGPFYGSANYFDYWGQGTTVTVSS
VL: DIQMTQSPASLSLSVGETVTITCRASENIYSNLAWYQQKQGKSPQLLVYDATKLAEGVPSRFSGSESGTQYSLKINSLQSEDFGTYYCQHFWVTPWTFGGGTKLEIK

IC50 [10]: 0.185 µg/mL
ELISA OD [7]: 1.31 OD
B9: TNFR2 antibody #088 (antibody, V domains shown)
VH: B8 VH with I31T, E42G, S71T
VL: B8 VL with Q3L, S14F

IC50 [11]: 0.14 µg/mL
B10: TNFR2 antibody #001 (antibody, V domains shown)
VH: B8 VH with I31T
VL: B8 VL with D1E, Q3V, A25T, N28S, A34P
notes: also called antibody #1
